Data reported in patent US9212226B2, “Amino acid sequences directed against CXCR4 and other GPCRs and compounds comprising the same” (Ablynx N.V., priority 2008, dated 2015).
Marks after values point to notes of the source that are not given here.

Tests used:
CXCR4 [1] = biological target: T1, CXCR4 (Homo sapiens, UniProt P61073); experiment: [125I]-CXCL12 competition binding on membranes from HEK293T cells transiently expressing CXCR4; settings: for Displacem. (%) of [125I]-CXCL12 (maximal displacement), bivalent Nanobodies / pKi, [125I]-CXCL12, bivalent Nanobodies / Binding (binding efficiency, competition binding with [125I]-CXCL12): membranes from HEK293T cells transiently expressing CXCR4; for Displacem. (%) of [125I]-CXCL12 (maximal displacement), bivalent Nanobodies / pKi, [125I]-CXCL12, bivalent Nanobodies: mean ± S.E.M.; for Displacem. (%) of [125I]-CXCL12 at 0.5 μM: at highest test concentration of 0.5 μM (footnote a: no significant displacement); for displacement of specifically bound [125I]-CXCL12: purified ligands, highest Nanobody test concentration 0.5 μM; for Rel. potency, relative to monovalent 238D2: [125I]-CXCL12 displacement, potency relative to those of monovalent 238D2; for Binding (binding efficiency, competition binding with [125I]-CXCL12): screening of Nanobody clone pools
Procedure: (§1) HEK293T cells were maintained at 37° C. in a humidified 5% CO2, 95% air atmosphere in Dulbecco's modified Eagle's medium (DMEM) containing 2 mM L-glutamine, 50 IU/ml penicillin, 50 μg/ml streptomycin, and 10% (v/v) fetal calf serum. Jurkat cells were cultured in a humidified 5% CO2, 95% air atmosphere in a 1:1 mixture of Dulbecco's modified Eagle's medium (DMEM) and Ham's F12 medium containing 2 mM L-glutamine, 50 IU/ml penicillin, 50 μg/ml streptomycin, and 10% (v/v) fetal calf serum. […] [^125 I]-Labelling— Radiolabeling of Nanobodies with ^125I was performed using the Iodo-gen method (Pierce, Rockford, Ill.) according to the manufacturer's protocol. ^125I-labeled Nanobodies was separated from free iodine (>99%) using a Sephadex G-25 gel filtration column (Amersham Biosciences, Piscataway, N.J.). […] Competition Binding Assays— Membranes from HEK293T cells transiently expressing CXCR3 or CXCR4 were prepared 48 h after transfection as follows. Cells were washed and scraped from the cell culture dishes with ice-cold PBS containing 1 mm EDTA. The scraped cells were pelleted at 1500×g for 10 min at 4° C. The pellet was washed and then resuspended in ice-cold membrane buffer (15 mM Tris, pH 7.5, 1 mM EGTA, 0.3 mM EDTA, and 2 mM MgCl2). The cell suspension was homogenized by 10 strokes at 1200 rpm using a Teflon-glass homogenizer and rotor and further subjected to three freeze-thaw cycles using liquid nitrogen. Membranes were separated by centrifugation at 40,000 g for 25 min at 4° C. The membrane pellet was washed and resuspended in ice-cold Tris-sucrose buffer (20 mM Tris, pH 7.4, and 250 mM sucrose) and frozen in liquid nitrogen. The total protein was determined using a Bradford assay (Bio-Rad). […] Membranes were then harvested over polyethylenimine (0.5%)-treated Whatman GF/C filter plates and washed three times with ice cold binding buffer containing 500 mM NaCl. Plates were counted by liquid scintillation. Inositol Phosphate Accumulation Assay— 24 hours post transfection with pcDNA3.1-CXCR4 and pcDNA1-HA-mG {alpha} qi5 (see Verzijl et al, 2008 supra), 250.000 cells were seeded into 24-wells plates and labelled overnight using inositol-free minimal essential medium supplemented with 1 μCi myo-[2-^3H]-inositol. The next day, the cells were washed once to remove not incorporated myo-[2-^3H]-inositol. […] In agonist experiments, the cells were directly stimulated with test compounds and LiCl (10 mM) in assay buffer for 2 h at 37° C. The stimulation was stopped by aspirating the stimulation medium and adding ice-cold 10 mM formic acid. The accumulated inositol phosphates were isolated by anion exchange chromatography and counted by liquid scintillation. CRE Reporter Gene Assay— HEK239T cells were transfected with pCRE/β-galactosidase (Chen W, Shields T S, Stork P J S, Cone R D (1995) Anal Biochem 226:349-354) and plasmids (pcDEF3 or pcDNA3.1) encoding the indicated receptors. 40,000 transfected cells per well were seeded into 96 well plates and grown in DMEM supplemented with 10% fetal calf serum. The medium was replaced 32 h after transfection by serum-free DMEM supplemented with 0.5% bovine serum albumin and ligands as indicated. […] The β-galactosidase activity was determined by the measurement of absorption at 420 nm with a PowerwaveX340 plate reader (Bio-Tek Instruments Inc., Winooski, Vt.) after incubation with the assay buffer when the OD420 value for forskolin (3 μM) controls reached 0.4-0.6. Chemotaxis Assay— The chemotactic responsiveness of Jurkat 3D cells was assessed using ChemoTx™ plates (Receptor Technologies Ltd., Oxon, UK) in which a upper cell-containing compartment is separated from a lower chemoattractant-containing compartment by a polyvinylpyrollidone-free polycarbonate filter with 5-μm pores. Cells were harvested, washed and resuspended in RPMI containing 0.5% bovine serum albumin and then loaded to 150,000 cells per well in a volume of 25 μl into the upper compartment of the chemotaxis chamber.

CXCR4 [2] = biological target: T1, CXCR4; experiment: [125I]-238D2 competition binding on membranes from HEK293T cells transiently expressing CXCR4; settings: for displacement of [125I]-238D2 from CXCR4: [125I]-238D2 3 nM; for Displacem. (%) of [125I]-238D2 at 0.5 μM: at highest test concentration of 0.5 μM (footnote a: no significant displacement; b: maximum not reached)
Procedure: as §1

CXCR4 [3] = biological target: T1, CXCR4; experiment: [125I]-238D4 competition binding on membranes from HEK293T cells transiently expressing CXCR4; settings: for displacement of [125I]-238D4 from CXCR4: [125I]-238D4 3 nM; for Displacem. (%) of [125I]-238D4 at 0.5 μM: at highest test concentration of 0.5 μM (footnote a: no significant displacement; b: maximum not reached)
Procedure: as §1

T1 sequence (P61073 whole entry): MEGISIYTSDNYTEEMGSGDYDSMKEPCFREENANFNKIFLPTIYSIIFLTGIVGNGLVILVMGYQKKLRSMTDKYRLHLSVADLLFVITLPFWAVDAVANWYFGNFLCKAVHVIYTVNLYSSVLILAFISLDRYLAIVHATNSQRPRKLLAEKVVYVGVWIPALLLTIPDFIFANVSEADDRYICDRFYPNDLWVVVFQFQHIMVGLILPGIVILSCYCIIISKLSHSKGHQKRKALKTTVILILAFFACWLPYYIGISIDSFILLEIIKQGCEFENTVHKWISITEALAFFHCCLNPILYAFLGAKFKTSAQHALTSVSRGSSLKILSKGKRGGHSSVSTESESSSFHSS

Molecule	Displacem. (%) of [125I]-CXCL12 (maximal displacement), bivalent Nanobodies (CXCR4 [1]) [%]	displacement of [125I]-238D2 from CXCR4 (CXCR4 [2])	Displacem. (%) of [125I]-238D2 at 0.5 μM (CXCR4 [2])	Displacem. (%) of [125I]-CXCL12 at 0.5 μM (CXCR4 [1])	displacement of specifically bound [125I]-CXCL12 (CXCR4 [1])	displacement of [125I]-238D4 from CXCR4 (CXCR4 [3])	Displacem. (%) of [125I]-238D4 at 0.5 μM (CXCR4 [3])	Rel. potency, relative to monovalent 238D2 (CXCR4 [1])	pKi, [125I]-CXCL12, bivalent Nanobodies (CXCR4 [1])	Binding (binding efficiency, competition binding with [125I]-CXCL12) (CXCR4 [1])	affinity to CXCR4 (CXCR4 [1]; in words)	Displacem. (%) of [125I]-CXCL12 at 0.5 μM, bivalent Nanobodies (CXCR4 [1]; maximum not reached at the highest test concentration of 0.5 μM, displacement at 0.5 μM)
238D4-20GS-238D4: bivalent Nanobody, 238D4 linked to 238D4 by a 20 amino acid GGGGS linker (protein, Nanobody, Nanobody constructs or fragments thereof, bivalent Nanobody, 238D4 linked to 238D4 by a 20 amino acid GGGGS linker) EVQLMESGGGLVQAGGSLRLSCAASGRTFNNYAMGWFRRAPGKEREFVAAITRSGVRSGVSAIYGDSVKDRFTISRDNAKNTLYLQMNSLKPEDTAVYTCAASAIGSGALRRFEYDYSGQGTQVTVSSGGGGSGGGGSGGGGSGGGGSEVQLMESGGGLVQAGGSLRLSCAASGRTFNNYAMGWFRRAPGKEREFVAAITRSGVRSGVSAIYGDSVKDRFTISRDNAKNTLYLQMNSLKPEDTAVYTCAASAIGSGALRRFEYDYSGQGTQVTVSS	96 ± 5	–	–	–	–	–	–	–	–	–	–	–
237D2: Nanobody (VHH) raised against human CXCR4, SEQ ID NO: 241 (protein, Nanobody, Nanobody constructs or fragments thereof) VHH: EVQLVESGGGLVQPGGSLRLSCAASGFTFDDYAMSWVRQAPGKGLEWVSAISWNGGSTDYADSVKGRFTISRDNAKNTLYLQMNSLKSEDTAEYYCARDQGPFYSGTYYYTRQYGYRGQGTQVTVSS	–	unable to inhibit	0^a %	0^a %	unable to displace	unable to inhibit	0^a %	–	–	–	–	–
238D2-10GS-238D2: bivalent Nanobody, 238D2 linked to 238D2 by a 10 amino acid GGGGS linker (protein, Nanobody, Nanobody constructs or fragments thereof, bivalent Nanobody, 238D2 linked to 238D2 by a 10 amino acid GGGGS linker) EVQLVESGGGLVQTGGSLRLSCAASGFTFSSYAMSWVRQAPGKGLEWVSGIKSSGDSTRYAGSVKGRFTISRDNAKNMLYLQMYSLKPEDTAVYYCAKSRVSRTGLYTYDNRGQGTQVTVSSGGGGSGGGGSEVQLVESGGGLVQTGGSLRLSCAASGFTFSSYAMSWVRQAPGKGLEWVSGIKSSGDSTRYAGSVKGRFTISRDNAKNMLYLQMYSLKPEDTAVYYCAKSRVSRTGLYTYDNRGQGTQVTVSS	95 ± 5	–	–	–	–	–	–	14^a	9.16 ± 0.08	–	–	–
237A6: Nanobody (VHH) raised against human CXCR4, SEQ ID NO: 248 (protein, Nanobody, Nanobody constructs or fragments thereof) VHH: EVQLVESGGGLVQAGGSLRLSCAASGSIFSLNAMGWYRQAPGKQRELVAGITSSTSTYYADSVKGRFTISRDNTKNTVYLQMNSLKPEDTAVYYCNVDCPDYYSDYECPLEDRGQGTQVTVSS	–	unable to inhibit	0^a %	0^a %	unable to displace	unable to inhibit	0^a %	–	–	+ (+ = 30-69%)	–	–
238B10: Nanobody (VHH) raised against human CXCR4, SEQ ID NO: 242 (protein, Nanobody, Nanobody constructs or fragments thereof) VHH: EVQLVESGGGFVQAGGSLRLSCETSGRPLLGYTIAWFRQVPGKEREFVAYHRWSDGANLYADSVKGRFTISGHNAKNTVSLQMNSLKPEDTAVYYCAAARMTTSNDKEYLYWGQGTQVTVSS	–	–	–	–	–	–	–	–	–	–	inactive	–
238D2-20GS-238B10 (protein) EVQLVESGGGLVQTGGSLRLSCAASGFTFSSYAMSWVRQAPGKGLEWVSGIKSSGDSTRYAGSVKGRFTISRDNAKNMLYLQMYSLKPEDTAVYYCAKSRVSRTGLYTYDNRGQGTQVTVSSGGGGSGGGGSGGGGSGGGGSEVQLVESGGGFVQAGGSLRLSCETSGRPLLGYTIAWFRQVPGKEREFVAYHRWSDGANLYADSVKGRFTISGHNAKNTVSLQMNSLKPEDTAVYYCAAARMTTSNDKEYLYWGQGTQVTVSS	–	–	–	–	–	–	–	<0.1^a	<7.00	–	–	43 ± 11^c %
237D1: Nanobody (VHH) raised against human CXCR4, SEQ ID NO: 249 (protein, Nanobody, Nanobody constructs or fragments thereof) VHH: EVQLVESGGGLAQPGGPLRLTCEASGVIYSVNDMGWYRQAPGKQRELVAVITSGGGTNYVDSVKGRFTISGDNRKKTVYLQMNSLKPEDTAVYYCSIYYSSGISTLRSWGQGTQVTVSS	–	unable to inhibit	0^a %	0^a %	unable to displace	unable to inhibit	0^a %	–	–	+ (+ = 30-69%)	–	–
238D2-20GS-238C5 (protein, Nanobody, Nanobody constructs or fragments thereof) EVQLVESGGGLVQTGGSLRLSCAASGFTFSSYAMSWVRQAPGKGLEWVSGIKSSGDSTRYAGSVKGRFTISRDNAKNMLYLQMYSLKPEDTAVYYCAKSRVSRTGLYTYDNRGQGTQVTVSSGGGGSGGGGSGGGGSGGGGSEVQLMESGGGLVQAGGSLRLACAASGFTFEDYAIGWFRKAPGKEREGVSCISGSDGSTTYADSVKGRFTISTDNAKNTVYLEMNSLKPEDTAVYYCAQQYGVGGRVVCPGPYEYDVWGQGTQVTVSS	110 ± 2	–	–	–	–	–	–	0.18^a	7.35 ± 0.07	–	–	–
237G7: Nanobody (VHH) raised against human CXCR4, SEQ ID NO: 251 (protein, Nanobody, Nanobody constructs or fragments thereof) VHH: EVQLVESGGGLVQPGGSLRLSCAASSFIGNYHAIVWLRQAPGKELEGVSCITSRDSITYYASFVKGRFTISRDDAKNTVYLQMNNLKPEDTAVYYCAVBTSMTCPTLIVRFNYRGQGTQVTVSS	–	unable to inhibit	0^a %	0^a %	unable to displace	unable to inhibit	0^a %	–	–	+ (+ = 30-69%)	–	–
